Reference: patent US20020039776

Molecular target: free histones (mixture of H1, H3, H2B, H2A and H4; Boehringer Mannheim)

B1: GST-SUV39H1(82-412) (protein)
chain: CVRILKQFHKDLERELLRRHHRSKTPRHLDPSLANYLVQKAKQRRALRRWEQELNAKRSHLGRITVENEVDLDGPPRAFVYINEYRVGEGITLNQVAVGCECQDCLWAPTGGCCPGASLHKFAYNDQGQVRLRAGLPIYECNSRCRCGYDCPNRVVQKGIRYDLCIFRTDDGRGWGVRTLEKIRKNSFVMEYVGEIITSEEAERRGQIYDRQGATYLFDLDYVEDVYTVDAAYYGNISHFVNHSCDPNLQVYNVFIDNLDERLPRIAFFATRTIRAGEELTFDYNMQVDPVDMESTRMDSNFGLAGLPGSPKKRVRIECKCGTESCRKYLF
HMTase activity: The SU(VAR)3-9 family members assayed, SUV39H1, Suv39h2 and CLR4, displayed HMTase activity.

B2: GST-CLR4(127-490) (protein)
chain: KQSTALTTNDTSIILDDSLHTNSKKLGKTRNEVKEESQKRELVSNSIKEATSPKTSSILTKPRNPSKLDSYTHLSFYEKRELFRKKLREIEGPEVTLVNEVDDEPCPSLDFQFISQYRLTQGVIPPDPNFQSGCNCSSLGGCDLNNPSRCECLDDLDEPTHFAYDAQGRVRADTGAVIYECNSFCSCSMECPNRVVQRGRTLPLEIFKTKEKGWGVRSLRFAPAGTFITCYLGEVITSAEAAKRDKNYDDDGITYLFDLDMFDDASEYTVDAQNYGDVSRFFNHSCSPNIAIYSAVRNHGFRTIYDLAFFAIKDIQPLEELTFDYAGAKDFSPVQSQKSQQNRISKLRRQCKCGSANCRGWLFG
HMTase activity: The SU(VAR)3-9 family members assayed, SUV39H1, Suv39h2 and CLR4, displayed HMTase activity.
